Test results published in the DeepSol protein solubility set.

Test: soluble on expression in E. coli; label from the status in PepcDB or PDB records

**Q.** For “MAAAALREQLNALLSSMFASGLVDEQFQQLQMLQEDGGTPGFVAEVVTLFCDDADRIISELAALLDQPIVDFDKVDAYVHQLKGSSASVGAQKVKFTCMQFRQLCQDKNRDGCIMALAVVRNEFYDLRNKFQTMLQLEQQIQAQQ”, which “soluble on expression in E. coli” value is on record?
**A.** soluble

**Q.** Which “soluble on expression in E. coli” value does the source give for “MAHHHHHHMSFHPRDAFILHQEYIQRLNEGDEVDTSAEQKVELNLQRHADSESAATVTFSHEDHTLGNPLRHVIMEDPSVTSAGYAIPHPLEAKMQLHVQSSEYAVETVAKGLERLAAICDETLKSFNACVEAISAEDPEGH” here?
**A.** not soluble

**Q.** For “SQDEVETEVIIKDIFKQGKICFIPQYQFQSNHMDMVRLTSPEEIALLPKTSWNIHQPGEGDVREEALSTGGLDLIFLPGLGFDKDGNRLGRGKGYYDTYLKRCVQHQEVKPYTMALAFKEQICPQIPVDEHDMKVDEVLYEDSPAS”, which “soluble on expression in E. coli” value is on record?
**A.** not soluble

**Q.** Which “soluble on expression in E. coli” value does the source give for “MHHHHHHSSGVDLGTENLYFQSMAKSAEVKLAIFGRAGVGKSALVVRFLTKRFIWEYDPTLESTYRHQATIDDEVVSMEILDTAGQEDTIQREGHMRWGEGFVLVYDITDRGSFEEVLPLKNILDEIKKPKNVTLILVGNKADLDHSRQVSTEEGEKLATELACAFYECSACTGEGNITEIFYELCREVRRRRMVQ” here?
**A.** soluble

**Q.** With “MGSDKIHHHHHHMKKWLVLGVAAVAFFSYENTPMEQAEADYPKSGGTLIDRYTSEYPGYDWEVRRTATEEFVALTKDGKDYGKYRSKNGVTTQGAVLNKDTETTLAKKGWKAVKSYRKGNTNYLLNLDHAAVYEKKDRYVTYFFDQHDGNKVKATLAIPKEVEAKKSGFYGKASSALRTTDEKLMLRLMNWDRADYNLGALTPYSPLKPVTRAHSENMAKNNFFSHTDPERRDPFDRMKENGIRFSAAGENLSMGYPNVFAAHWGLMNSKGHRDNIMNKTFEQADTGVAFRDNAPYFTINFRTP” as the sequence, how does the “soluble on expression in E. coli” value read?
**A.** not soluble

**Q.** For “MSELLAGTKLINQDSEELDAGEHLKGKVVGLYFSASWCPPCRQFTPKLTRFFDEIRKKHPEFEVVFVSRDREDGDLREYFLEHMGAWTAIPFGTPRIQELLEQYEVKTIPSMRIVKPNGDVVVQDARTEIQDKGNDPEALWEEWLAFYD”, which “soluble on expression in E. coli” value is on record?
**A.** not soluble

**Q.** Which “soluble on expression in E. coli” value does the source give for “MAVTEVKLNAPLAVGVWAKMLNTETSKALPIAPLMGKSKNSIIQVLDMLEKSAGDAVTSGLRVQLMGDGVSEGQTLEGNEEALQFMNEKVHINELTHAVRIKYEGSIDQQRIPFSLRQEAKDGLVDWYADRLSLMFFIQAAGYTAPWMQFEGRTITLKPVHYGFNAPSEPSKLRVIRPAKKKTDEELTKEDVFTLDLIDQAVERAKLANPRLRPVRVDGKSAYVMYLHPIQVTQLRTNTKSGQWLDITKAAYDGSGAKNPIFNGSLGMYNGVILREAEHVPNGVNSKTQEPVPSVRRAVLLGAQSIIMAYGRIGNGATGSNEENSETRYKLVEELFDYQREFGLAAKTIIGMKKSRYTLPHSDQGGQDFGTIVIPSFAEAS” here?
**A.** not soluble

**Q.** Which “soluble on expression in E. coli” value does the source give for “GSNSLMERIHEQIKKGELALFYLQEQINHFEEKPTKEMKDKIVAEMDTIIAMIDGVRGVLDRLMQRKDLDIFEQYNLEMAKKSGDILERDLKKEEARVKKIEV” here?
**A.** soluble

**Q.** With “MRWLLVVAGLLAAGGLAQTPPPPAAQTAEQNPLRLGVQLYALGRYDAALTLFERALKENPQDPEALYWLARTQLKLGLVNPALENGKTLVARTPRYLGGYMVLSEAYVALYRQAEDRERGKGYLEQALSVLKDAERVNPRYAPLHLQRGLVYALLGERDKAEASLKQALALEDTPEIRSALAELYLSMGRLDEALAQYAKALEQAPKDLDLRVRYASALLLKGKAEEAARVLEEGHRIKPLNAEGWYTLGQAYLALGRTKEAGVALENAVALAPLRFPAAYYYLGQVYLALGDYPKAKSRLTVAVRLEPKRAEYRYSLCLANEKLGDKEGARYQCQEALKLRPDYKEAEEVLKRL” as the sequence, how does the “soluble on expression in E. coli” value read?
**A.** soluble

**Q.** For “MNRILSMIEQMEPGVVIFNDDLTISSVSSMVFMIFGHIPRERIFAGDLLDIHDEAAREKVKETLRLARQAQRHIPLSLKFITSEGHDRYLLVKLITVAERDPASEKICALFYDITPFIVAERKLTRVPVTSRGDIHLLRPEEIVYLKADNIYSLIYTEAGEFHSDLSLGAMEKRLSEDIFYRIHRSYLVNLAKVRKVHRESSECTVAAGGGEVRLPVSRDKMQRFLTDLGLK”, which “soluble on expression in E. coli” value is on record?
**A.** not soluble

**Q.** With “MIRQSVFLLAAIGATVFAQNDSFDLVDANNDGKLSEKELITFMRKRGRPDGQEYFQRFDLDRNGHLDISEFVPLVYEMSRRPVDMDYEFFKKMDLNDDGIVDKAEVEKIRKDNNDRIIDGILSIADTNRDGQLTYAEFKNHLSSGAKSLSPAEEQRNQALQLLSFIDANGDNKLDQLELYTFSQKTSTNKVTKSDVQQIFAMLDKNQDGYLTENELLQLAQQFSTIGNVRSTIPKV” as the sequence, how does the “soluble on expression in E. coli” value read?
**A.** not soluble

**Q.** With “DVQLQQSGPGLVAPSQSLSITCTVSGFSLTDYGVNWVRQSPGKGLEWLGVIWGDGITDYNSALKSRLSVTKDNSKSQVFLKMNSLQSGDSARYYCVTGLFDYWGQGTTLTVSSASGADHHHHHH” as the sequence, how does the “soluble on expression in E. coli” value read?
**A.** soluble

**Q.** Which “soluble on expression in E. coli” value does the source give for “MGSDKIHHHHHHMSGTAEVNPITVDVYLDITVENISTLKDLTVKFDNYDEDLHYVKEVTDNSVKVDGIIPGIYSVTVSGTAIDTENNEYYINGNSVNAALFKHGSALNIEVQGLKVSPLIFKEIYYCGSRPEKGGVYFRDQFYEIYNNSADILYLDGIYFANLTPGTATTKLPIWPEADGNNYAYGERVWKFPGNGTEYPLAPGESCIISQFAANHQLDIYNPQSPIDGSSSEFEFNMNNPNFPDQAAYDMQHVFYQGKAEMGSIPQYLTSVFGGAYVIFRVPEGEAWDPVNDENMKTTDLSKPNSNVYYAKIPIKYVLDAVEAVNNESKMNAKRVPGVLDAGITWVGATYCGLGIARKLSTDEEGNPIIREETGTYIYQDTNNSTDDFERGVVPVMRRNGAKMPSWNHTL” here?
**A.** not soluble

**Q.** Which “soluble on expression in E. coli” value does the source give for “MDTMRQRILVVDDDASLAEMLTIVLRGEGFDTAVIGDGTQALTAVRELRPDLVLLDLMLPGMNGIDVCRVLRADSGVPIVMLTAKTDTVDVVLGLESGADDYIMKPFKPKELVARVRARLRRNDDEPAEMLSIADVEIDVPAHKVTRNGEQISLTPLEFDLLVALARKPRQVFTRDVLLEQVWGYRHPADTRLVNVHVQRLRAKVEKDPENPTVVLTVRGVGYKAGPPTSGSHHHHHH” here?
**A.** soluble

**Q.** With “MGSDKIHHHHHHMNDRFVCSLIEKSDLSNFVKKHSKNVFYDIAKAEAAVHQQTIDTIHFHEVGAIDSIVDIVGFFILWEQLEIEQVYSTPITDGSGTITIAHGVMPIPVPAVMELRKETNLIIQQDFEIKTELVTPTGLAIFKELSPLFVAPEQRLIEKIGYGFGKRETGKFNALRGSIFTETHSKKKRTEHHDQVLKIETNIDNQTPEQLGYVMDLLLEHGALDVFFTPIHMKKNRSAILLTVLTTTEEKEYFTELLFKHTSTIGMRFQTMERSVMDRSFKILETPFGKVHIKKNHYHGLLKESIEYQDCERIAKQYNFTIEEVYRLVQTLNNKTID” as the sequence, how does the “soluble on expression in E. coli” value read?
**A.** not soluble

**Q.** With “MGSDKIHHHHHHMPEPELMDDPLQARAYAEADFSCGDEALIQRLQEYLISLCKIPSPGSMIVDLGCGPGNICERLQRLWPEVMVLGIDGAQAMLDHALQRQKAMAAELKRLTYRCSNLSSLVNQCVDLKCSAALVVSNSLLHHLHDPNLLWQVTKYLAAPGAFVFHRDLRRPLSTKHAIALQQKHMQEAPSILIRDYLASLHAAFTLEEVQSQLVHAGLDHLHVIEVEDRYLDVFGTI” as the sequence, how does the “soluble on expression in E. coli” value read?
**A.** not soluble

**Q.** Which “soluble on expression in E. coli” value does the source give for “GSSTVTLPETLLFVSTLDGSLHAVSKRTGSIKWTLKEDPVLQVPTHVEEPAFLPDPNDGSLYTLGSKNNEGLTKLPFTIPELVQASPCRSSDGILYMGKKQDIWYVIDLLTGEKQQTLSSAFADSLSPSTSLLYLGRTEYTITMYDTKTRELRWNATYFDYAASLPEDDVDYKMSHFVSNGDGLVVTVDSESGDVLWIQNYASPVVAFYVWQREGLRKVMHINVAVETLRYLTFMSGEVGRITKWKYPFPKETEAKSKLTPTLYVGKYSTSLYASPSMVHEGVAVVPRGSTLPLLEGPQTDGVTIGDKGESVITPSTDVKFDPGLKSKNKLNYLRNYWLLIGHHETPLSASTKMLERFPNNLPKHRENV” here?
**A.** soluble

**Q.** With “MSVSLVVIRLELAEHSPVPAGFGFSAAAGEMSDEEIKKTTLASAVACLEGKSPGEKVAIIHQHLGRREMTDVIIETMKSNPDELKTTVEERKSSEASPTAQRSKDHSKECINAAPDSPSKQLPDQISFFSGNPSVEIVHGIMHLYKTNKMTSLKEDVRRSAMLCILTVPAAMTSHDLMKFVAPFNEVIEQMKIIRDSTPNQYMVLIKFRAQADADSFYMTCNGRQFNSIEDDVCQLVYVERAEVLKSEDGASLPVMDLTELPKCTVCLERMDESVNGILTTLCNHSFHSQCLQRWDDTTCPVCRYCQTPEPVEENKCFECGVQENLWICLICGHIGCGRYVSRHAYKHFEETQHTYAMQLTNHRVWDYAGDNYVHRLVASKTDGKIVQYECEGDTCQEEKIDALQLEYSYLLTSQLESQRIYWENKIVRIEKDTAEEINNMKTKFKETIEKCDNLEHKLNDLLKEKQSVERKCTQLNTKVAKLTNELKEEQEMNKCLRANQVLLQNKLKEEERVLKETCDQKDLQITEIQEQLRDVMFYLETQQKINHLPAETRQEIQEGQINIAMASASSPASSGGSGKLPSRKGRSKRGK” as the sequence, how does the “soluble on expression in E. coli” value read?
**A.** soluble

**Q.** With “MTEYERPQTPGVVTHDAVVLAGGAARRLGGADKPGVRVGGRALLDRVLAACAGAATTVVVADPRATARPVVWAREEPPGAGPVAALDAGLRRTTAAYVVVLSADLPFLDEETVRRLLSTLQASGTEGVLLTDPGGRDQPLVAAYRSAALRRELAELAAGHGTLAGLPLRVLVAALDLTRVSDPVASFDCDTWDDIAAARSRIREHGNVLDEWISAVKDELGIDLAVDTGILLDLARDAAHGVARPAAPLTTFLVGYAAAQAGGGPEAVAEAARKAAALALRWADEAAAEAGPDAGLEHHHHHH” as the sequence, how does the “soluble on expression in E. coli” value read?
**A.** not soluble

**Q.** With “MNPLFFLASPFLYLTYLIYYPNKGSFVSKPRNLQKMSSEPFKNVYLLPQTNQLLGLYTIIRNKNTTRPDFIFYSDRIIRLLVEEGLNHLPVQKQIVETDTNENFEGVSFMGKICGVSIVRAGESMEQGLRDCCRSVRIGKILIQRDEETALPKLFYEKLPEDISERYVFLLDPMLATGGSAIMATEVLIKRGVKPERIYFLNLICSKEGIEKYHAAFPEVRIVTGALDRGLDENKYLVPGLGDFGDRYYCV” as the sequence, how does the “soluble on expression in E. coli” value read?
**A.** not soluble

**Q.** With “MKSFALVRADDSDKVKIALHDLERYGHIQFSATPKCIEPNYADELLVSVMGVSLKSKCNSAALVELNNHAGAAISRLKKIHPPAHIIIISPRHKMFEELAGKFPKYPEFDRTFNHQKSPQGLDMIQEKGESSNA” as the sequence, how does the “soluble on expression in E. coli” value read?
**A.** not soluble

**Q.** For “MAHHHHHHMRKIYIAGPAVFNPDMGASYYNKVRELLKKENVMPLIPTDNEATGALDIRQKNIQMIKDCDAVIADLSPFRGHEPDCGTAFEVGYAAALNKMVLTFTSDRRNMREKYGSEVDKDNLRVEGFGLPFNLMLYDGVEVFDSFESAFKYFLANFPSK”, which “soluble on expression in E. coli” value is on record?
**A.** soluble

**Q.** For “MRGVVKELNDDGFGVLGNVLVPFSAPGDEVEILKIEKVKKAKIASKWKLIKSSPLRVGARCKVFGRCGGCSLQHLSYDYQLEFKGERIRRLLGVDVEVIPSPRIFGHRNRIDLAVTVEGIGFRERGKWWKIVDIQECPVFGKTSRKAIERLREFIEEERISVWNVKKDEGFLRYMVLREGKFTGEVMVNLVTKEGKLPDPSKYFDFATSIYWSVNRTKSDVSYGEVESVWGREFITEKLDDVIYLIHPNSFFQTNSYQAVNLVKKVSELVEGERVLDMYSGVGTFGIYLAKRGFKVVGFDSNEFAIEMARKNAKINKVDAVFDVATDREVEVNGFDTVIVDPPRVGLHPKLIKKLNREKPEVIVYVSCNPKTFARDIEKLEYKIDEIVALDMFPHTPHLELVAKLIV”, which “soluble on expression in E. coli” value is on record?
**A.** soluble
